Experiments:
[1] = molecular target: T1, mouse PD-L1 on cells (mouse, UniProt Q9EP73 19-290); experiment: flow cytometry on mouse PD-L1-CHO cells
T1 construct: whole, on cells; also called mouse PD-L1-CHO cells
Description: The cells were resuspended with the prepared FACS buffer and counted, and the cell suspension density was adjusted to 2×10⁶ cells/mL. 100 μL of mouse PD-L1-CHO cells and cynomolgus monkey PD-L1-CHO cells were added per well to the 96-well plates, respectively. The plates were centrifuged at 300 g to remove the supernatant. […] The incubated cell mixture was centrifuged at 300 g to remove the supernatant, 200 μL of FACS buffer was added to corresponding wells, and the cells were resuspended with a multichannel pipette. The centrifugation, resuspension and washing steps were repeated twice, and the cells were centrifuged at 300 g to remove the supernatant. The PE-labeled anti-human IgG Fc flow antibody (Abcam, ab98596) was added, and the cells were pipetted to mix with a multichannel pipette and incubated at 4° C. for 30 minutes. The cells were centrifuged at 300 g to remove the supernatant, and FACS buffer was added to resuspend the cells. The centrifugation, resuspension and washing steps were repeated twice, and 200 μL of FACS buffer was added per well to resuspend the cells.

[2] = molecular target: T2, human PD-L1 on cells (human, UniProt Q9NZQ7 19-290); experiment: flow cytometry on HCC827 cells
T2 construct: whole, on cells; Overexpressed on CHO cells or present on HCC827 tumor cells; the cell is named under assay; also called human PD-L1-CHO cells; PD-L1 protein on HCC827 cells
T2 sequence (Q9NZQ7 19-290): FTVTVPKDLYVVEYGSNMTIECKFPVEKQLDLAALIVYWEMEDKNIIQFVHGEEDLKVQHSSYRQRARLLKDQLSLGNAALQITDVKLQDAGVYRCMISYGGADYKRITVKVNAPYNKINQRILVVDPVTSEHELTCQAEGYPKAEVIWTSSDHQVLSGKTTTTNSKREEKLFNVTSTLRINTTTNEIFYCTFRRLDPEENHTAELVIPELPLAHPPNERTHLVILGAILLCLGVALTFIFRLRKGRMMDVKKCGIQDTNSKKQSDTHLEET
Description: The cells were resuspended in the prepared FACS buffer and counted, and the cell suspension density was adjusted to 2×10⁶ cells/mL. 100 μL of HCC827 cells were added per well to 96-well plates. The plates were centrifuged at 300 g to remove the supernatant. […] The incubated cell mixture was centrifuged at 300 g to remove the supernatant, 200 μL of FACS buffer was added to corresponding wells, and the cells were resuspended with a multichannel pipette. The centrifugation, resuspension and washing steps were repeated twice, and the cells were centrifuged at 300 g to remove the supernatant. […] The incubated cell mixture was centrifuged at 300 g to remove the supernatant, 200 μL of FACS buffer was added to corresponding wells, and the cells were resuspended with a multichannel pipette. The centrifugation, resuspension and washing steps were repeated twice, and the cells were centrifuged at 300 g to remove the supernatant. The PE-labeled anti-biotin flow antibody (Abcam) was added, and the cells were pipetted to mix with a multichannel pipette and incubated at 4° C. for 30 minutes. The cells were centrifuged at 300 g to remove the supernatant, and FACS buffer was added to resuspend the cells. The centrifugation, resuspension and washing steps were repeated twice, and 200 μL of FACS buffer was added per well to resuspend the cells.

[3] = molecular target: T3, B7-H3 protein (Sino Biological, 11188-H08H) (UniProt Q5ZPR3 29-461); experiment: ELISA, protein coated at 2 ug/mL; legend: N/A: No binding activity detected
T3 construct: Bought protein
T3 sequence (looked up): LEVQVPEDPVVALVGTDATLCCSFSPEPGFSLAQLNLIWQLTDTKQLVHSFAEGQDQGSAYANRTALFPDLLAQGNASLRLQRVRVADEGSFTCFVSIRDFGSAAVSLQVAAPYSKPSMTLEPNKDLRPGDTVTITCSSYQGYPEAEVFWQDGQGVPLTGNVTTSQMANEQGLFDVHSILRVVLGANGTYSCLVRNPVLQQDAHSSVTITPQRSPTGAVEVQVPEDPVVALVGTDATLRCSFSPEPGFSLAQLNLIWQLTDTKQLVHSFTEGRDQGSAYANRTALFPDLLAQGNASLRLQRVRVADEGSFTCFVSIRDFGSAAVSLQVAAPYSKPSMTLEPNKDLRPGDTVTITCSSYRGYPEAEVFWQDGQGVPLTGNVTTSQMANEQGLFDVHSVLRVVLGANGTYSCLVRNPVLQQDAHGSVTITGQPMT
Description: (§1) The specific procedures were as follows:
(§2) One day before the experiment, 30 μL of protein dilutions with a final concentration of 2 μg/mL (B7-H1 (i.e., PD-L1), B7-H2, B7-H3, B7-H4, and B7-DC (all proteins were purchased from Sino Biological Inc., catalog numbers 10084-HNAH, 11559-H08H, 11188-H08H, 10738-H08H, and 10292-H08H-B, respectively)) were added to the ELISA plates and the plates were incubated overnight at 4° C. The next day, the ELISA plate was rinsed three times with PBST, then blocked with 150 μL of PBS containing 5% skim milk powder at room temperature for 2 hours. […] The plates were washed three times with PBST, and 30 μL of 1:7000 diluted anti-human IgG Fc-HRP secondary antibody was added per well, followed by incubation at room temperature for 30 minutes. After washing the plate six times with PBST, TMB was added for color development, and the reaction was terminated by adding 2M HCl. The absorbance was read at a wavelength of 450 nm using a microplate reader (Molecular Devices, SpecterMax 190).

[4] = molecular target: T4, B7-H4 protein (Sino Biological, 10738-H08H) (UniProt Q7Z7D3 25-258); experiment: as above
T4 construct: Bought protein
T4 sequence (looked up): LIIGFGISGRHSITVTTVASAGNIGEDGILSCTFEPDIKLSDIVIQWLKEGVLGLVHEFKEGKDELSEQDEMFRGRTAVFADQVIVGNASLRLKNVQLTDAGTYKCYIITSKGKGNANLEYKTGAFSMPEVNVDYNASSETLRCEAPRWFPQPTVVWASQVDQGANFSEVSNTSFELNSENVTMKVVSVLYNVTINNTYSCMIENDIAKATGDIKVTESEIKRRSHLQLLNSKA
Description: as §1, §2

[5] = molecular target: T5, B7-H2 protein (Sino Biological, 11559-H08H) (UniProt O75144 19-258); experiment: as above
T5 construct: Bought protein
T5 sequence (looked up): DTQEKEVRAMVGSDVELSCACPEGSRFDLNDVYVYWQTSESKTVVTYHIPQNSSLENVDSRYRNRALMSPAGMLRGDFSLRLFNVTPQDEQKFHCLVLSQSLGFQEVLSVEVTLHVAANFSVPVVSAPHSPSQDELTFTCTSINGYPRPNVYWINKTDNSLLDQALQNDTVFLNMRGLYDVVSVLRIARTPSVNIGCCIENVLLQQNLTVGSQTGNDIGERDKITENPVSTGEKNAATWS
Description: as §1, §2

[6] = molecular target: T6, B7-DC protein (Sino Biological, 10292-H08H-B) (UniProt Q9BQ51 20-220); experiment: as above
T6 construct: Bought protein
T6 sequence (looked up): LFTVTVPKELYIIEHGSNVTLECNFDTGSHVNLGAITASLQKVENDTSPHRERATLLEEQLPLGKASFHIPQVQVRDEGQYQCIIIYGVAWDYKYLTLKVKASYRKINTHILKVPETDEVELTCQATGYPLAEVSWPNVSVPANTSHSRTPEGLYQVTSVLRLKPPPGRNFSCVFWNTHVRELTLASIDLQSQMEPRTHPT
Description: as §1, §2

T1 sequence (Q9EP73 19-290): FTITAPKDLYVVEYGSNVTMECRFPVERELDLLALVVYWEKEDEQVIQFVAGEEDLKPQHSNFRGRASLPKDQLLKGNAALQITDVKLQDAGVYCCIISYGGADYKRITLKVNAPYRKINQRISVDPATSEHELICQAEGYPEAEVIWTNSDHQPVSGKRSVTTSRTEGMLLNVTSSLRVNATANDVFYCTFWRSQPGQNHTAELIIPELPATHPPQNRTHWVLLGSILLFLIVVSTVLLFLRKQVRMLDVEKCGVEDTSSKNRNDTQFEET

B1: m18 (antibody, human IgG1, V domains shown)
VH: EVQLVESGGGLVQPGGSLRLSCAASRTDSNIHGMHWYRQAPGKGREWVGMIFIDGNTIVTDSVKGRFTISRDNAKNTLYLQMNTLRAEDTAVYYCAADSRGYGRAWGQGTTVTVSS
notes: also called antibody m18; anti-PD-L1 antibody m18
- binding result [1]: binds
- binding result [2]: binds
- binding result [3]: no binding
- binding result [4]: no binding
- binding result [5]: no binding
- binding result [6]: no binding

Reference: patent US20260028402A1 (SANYOU BIOPHARMACEUTICALS, published 2026)
